Substitutions are numbered along the chain they refer to.
T1: human APRIL/TNFSF13 (human), O75888
T1 chain: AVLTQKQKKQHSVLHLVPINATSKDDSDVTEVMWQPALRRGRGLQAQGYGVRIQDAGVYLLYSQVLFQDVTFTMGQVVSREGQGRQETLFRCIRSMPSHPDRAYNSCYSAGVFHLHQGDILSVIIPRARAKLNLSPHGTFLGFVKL

B1: 01-024 (scFv) (scFv, part only; not given: linker, domain order, Myc-His tags, V domains shown, not shown: another chain or arm of the molecule; small tags and cut ends)
VH: EVQLVQSGGGLVQSGGSLRVSCAASGFTFSSGLMSWVRQAPGKGFEWVSCYNGGSDRAGYTDSVKGRFTISRDNAKNTLYLQMNSLKPEDTAVYYCARYIANSGTYYWDYWGQGTTVTVSS
VL: QAVLTQPPSASGTPGQRVSISCSGGISNIGSNIVNWYQHLPGTAPKLLIYSGNQRPSGVPDRFSGSKSGTSASLAISGLQSEDEADYYCSSWDSDLRNWVFGGGTKLTVL
B2: 01-025 (scFv) (scFv, part only; not given: linker, domain order, Myc-His tags, V domains shown, not shown: another chain or arm of the molecule; small tags and cut ends)
VH: B1 VH with C50G
VL: QPVLTQPPSVSEAPRQRVTISCSGSSSNIGNNAVNWYQQLPGKAPKLLIYSTNQRPSGVPDRFSGSKSGTSASLAISGLQSEDEADYYCAAWDDRVSAWLFGGGTKLTVL
B3: 01-030 (scFv) (scFv, part only; not given: linker, domain order, Myc-His tags, V domains shown, not shown: another chain or arm of the molecule; small tags and cut ends)
VH: B1 VH with S14P, T28S, C50G, Y60F, T61A, K65E, T116L
VL: QSALTQPPSASGTPGQRVTISCSGSISNIGSNTVNWYQHLPGTAPKLLIYNHNQRPSGVPDRFSGSTSGTSASLAISGLQSEDEADYFCATWDDSLSAWLFGGGTKLTVL
B4: 01-027 (scFv) (scFv, part only; not given: linker, domain order, Myc-His tags, V domains shown, not shown: another chain or arm of the molecule; small tags and cut ends)
VH: B1 VH with C50G
VL: B1 VL
B5: 01-026 (scFv) (scFv, part only; not given: linker, domain order, Myc-His tags, V domains shown, not shown: another chain or arm of the molecule; small tags and cut ends)
VH: B1 VH with C50G
VL: QSVLTQPPSVSGAPGQRVTISCTGSSSNIGAGYDVHWYQQLPGTAPKLVIYGNTNRPSGVPDRFSGSKSGTSASLAISGLQSEDEADYYCAAWDDSLNGWVFGGGTKLTVL
B6: human BCMA (soluble analyte of Examples 8 and 14), Q02223 1-54 (receptor, UniProt Q02223 1-54, looked up)
chain: MLQMAGQCSQNEYFDSLLHACIPCQLRCSSNTPPLTCQRYCNASVTNSVKGTNA

These binders were tested against biotinylated human BCMA (human) (UniProt Q02223) (assay: BLI (Octet RED384), biotinylated human BCMA on SAX sensors, scFv 1200 nM analyte, 1:1 model). Details: not given.

| Kd [nM] | Response [nm] | koff [s⁻¹] | kon [M⁻¹ s⁻¹] | Binder |
| --- | --- | --- | --- | --- |
| 1.5 | 0.174 | 0.00057 | 380000 | B1 |
| 15.5 | 0.183 | 0.00128 | 82600 | B2 |
| 8.42 | 0.172 | 0.000939 | 112000 | B3 |
| 3.38 | 0.171 | 0.00096 | 284000 | B4 |
| 59.6 | 0.115 | 0.00248 | 41700 | B5 |

Target: T1, human APRIL/TNFSF13 (human), O75888
Assay: BLI (Octet RED384), APRIL/TNFSF13 on AR2G sensors, 71 nM human BCMA analyte, no antibody
Details: remark: other sources report otherwise

| Response [nm] | Binder |
| --- | --- |
| 0.659 | B6 |
